Paper PMC6307458, “Inhibition of Inflammatory Changes in Human Myometrial Cells by Cell Penetrating Peptide and Small Molecule Inhibitors of NFκB” (Frontiers in Immunology, 2018)

Test system: human myometrial cells
Assay: Live cell confocal microscopy, delivery of rhodamine cargo
Conditions: live cell spinning disk confocal microscopy; primary human myometrial cells; 1, 3 and 10 μM; 60 min; 37°C, 5% CO2; serum-reduced media (0.1% FCS); 3 independent experiments
Protocol: Cells were washed in phosphate buffered saline and changed to serum-reduced media (0.1%FCS) for 18–24 h ([39]).
Initial images were collected to assess baseline cellular auto-fluorescence prior to the addition of varying concentrations of fluorophore-CPP/fluorophore- CPP-Cargo/fluorophore-control peptide combinations (see Table 1) that were ready made up in serum-reduced cell media. Further images were captured 60 min following application.
To make a thorough assessment of fluorescent uptake throughout whole cells, all images were captured as a series of slices in the Z plane (range 3–10 slices per area selected, each slice 0.54 μm apart) with the 40x objective using live cell spinning disk confocal microscopy (Andor Revolution XD coupled to an Olympus IX-81 inverted microscope; Andor Belfast UK). All images were digitally recorded with IQ2 software (Andor, Belfast, UK).

Row | Substance | delivery of rhodamine fluorophore internal to the cells
1 | Rhodamine-RQIKIWFQNRRMKW-Aca- TALDWSWLQTE [rhodamine Pen(43-56)–NBD] | demonstrated ability to enter myometrial cells
2 | Rhodamine–RQIKIWFQNRRMKWKK [Penetratin, conjugated to rhodamine] | able to enter uterine cells
